The results in this text go back to US20120156198A1 (Hoffmann-La Roche, published 2012).

The target of the assay is T1, cynomolgus IL-18Rα/IL-18Rβ on transfected cells (cynomolgus, UniProt A0A2K5V3J9 19-540; A0A7N9D6S0 20-598).
T1 construct: whole, on cells; also called CHO CyIL-18Rα + β
T1 sequence 1: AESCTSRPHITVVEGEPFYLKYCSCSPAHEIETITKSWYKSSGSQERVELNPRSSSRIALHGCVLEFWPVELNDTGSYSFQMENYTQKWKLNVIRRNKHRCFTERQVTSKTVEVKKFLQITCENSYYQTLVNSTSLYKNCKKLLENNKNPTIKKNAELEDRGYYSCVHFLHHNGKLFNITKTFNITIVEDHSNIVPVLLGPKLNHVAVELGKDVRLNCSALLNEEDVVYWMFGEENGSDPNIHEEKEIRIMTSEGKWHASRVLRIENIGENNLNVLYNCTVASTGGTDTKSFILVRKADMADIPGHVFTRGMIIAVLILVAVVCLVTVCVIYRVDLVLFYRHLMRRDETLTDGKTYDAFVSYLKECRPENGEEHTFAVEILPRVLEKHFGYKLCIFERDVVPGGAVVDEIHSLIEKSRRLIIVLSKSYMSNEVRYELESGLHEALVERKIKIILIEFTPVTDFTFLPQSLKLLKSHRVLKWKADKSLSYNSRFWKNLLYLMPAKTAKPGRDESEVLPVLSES
T1 sequence 2: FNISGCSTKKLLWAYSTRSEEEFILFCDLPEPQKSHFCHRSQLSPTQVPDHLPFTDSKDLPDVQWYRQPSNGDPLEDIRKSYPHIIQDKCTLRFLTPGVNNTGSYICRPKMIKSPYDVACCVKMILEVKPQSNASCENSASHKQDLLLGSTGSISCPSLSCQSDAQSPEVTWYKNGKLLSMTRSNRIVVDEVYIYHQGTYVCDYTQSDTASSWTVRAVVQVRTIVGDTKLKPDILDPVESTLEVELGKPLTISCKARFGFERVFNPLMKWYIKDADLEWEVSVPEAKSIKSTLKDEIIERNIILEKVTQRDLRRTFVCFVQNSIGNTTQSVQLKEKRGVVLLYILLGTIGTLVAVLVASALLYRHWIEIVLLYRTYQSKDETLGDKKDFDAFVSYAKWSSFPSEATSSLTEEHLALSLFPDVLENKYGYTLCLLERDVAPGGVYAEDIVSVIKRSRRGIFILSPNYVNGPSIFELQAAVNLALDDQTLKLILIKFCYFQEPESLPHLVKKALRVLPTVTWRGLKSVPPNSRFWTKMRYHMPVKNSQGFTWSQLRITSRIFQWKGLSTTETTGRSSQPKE
Nature of the assay: cell ELISA on CHO-K1 cells expressing cynomolgus IL-18Rα+β. Here is the method:
The recombinant cell lines CHO-K1 expressing cynomolgus IL-18Rα or cynomolgus IL-18Rα+β were stained with the Mab_IL-18R antibodies in a cell ELISA. Controls are CHO-K1 untransfected cells. Cells were grown in F-12 medium (GIBCO) with Glutamax-1 (GIBCO Cat. No. 31331-028)+10% FCS (PAN Cat. No. 2802-P920707). For cultivation of the recominant cell lines 250 μg/ml G418 (Geneticin, GIBCO, Cat. No. 10131-019) was added. As control antibody anti hIL-18Ralpha Antibody Mab840 (Mouse monoclonal IgG1 from R&D Systems, Cat. MAB 840) and as detection antibody goat anti-mouse IgG (H+L)-HRP conjugate (BioRad) was added. For running the assay, on day 1 2×10⁴ CHO_CynoIL-18Rα, CHO_CynoIL-18Rα+β or untransfected CHO cells in 50 μl F-12/well were seeded in a 96-well plate and incubated overnight at 37° C. On day 2, 50 μl supernatant or (2×) purified antibody diluted in medium or 50 μl Hybridoma supernatant were added and incubated for 2 h at 4° C. Supernatant was aspirated and 100 μl/well Glutaraldehyde fixing solution (25% stock solution Grade EM; final concentration=0.05% in PBS) was added and incubated for 10 minutes at room temperature. For washing 2 times 200 μl PBS/well/wash was added and removed. 50 μl of ELISA detection-antibody diluted in ELISA blocking reagent (ELISA blocking stock reagent diluted 1:10 in PBS) was added. […] The plates were measured at 450 nm-620 nm using an ELISA reader (TECAN).

B1: Mab 1G12 (antibody, V domains shown)
VH: QVQLQQPGAELVKPGASVRMSCKTSDYTFTSNWMHWVKQRPGQGLEWIGTIDPSDSYTYYNQKFKGRATLTVDTSSSTAYMQLSSLTSEDSAVYYCTTSGDYDADRYFDVWGAGTTVTVSS
VL: DIVLTQSPASLGVSLGQRATISCRASKSVSTSGDSYMHWYQQKPGQSPKLLIYLASNLESGVPARFSGSGSGTDFTLNIHPVEEEDAATYYCQQSRELPLSFGAGTKLELK
notes: Monoclonal antibody from immunized NMRI mice; detected with anti-mouse IgG1-PE / anti-mouse IgG; also called F20.1G12; monoclonal antibody 1G12
Regarding B1, it took 0.015 µg/mL to reach a half-maximal effect (EC50).
